Results published in US7658917 (PRAECIS PHARMACEUTICALS, dated 2010).
Like-named read-outs stand apart in the source and are kept apart here. Ends that are not written are not given here. * marks the point of attachment. Cholyl = C[C@H](CCC(=O)*)[C@H]1CC[C@H]2[C@@H]3[C@H](O)C[C@@H]4C[C@H](O)CC[C@]4(C)[C@H]3C[C@H](O)[C@]12C

Experiments:
Experiment in all cases: cell-based or functional assay
[1] = target: natural β-amyloid peptide β-AP1-40 (human)
[2] = target: natural β-amyloid peptide β-AP1-40 (human); remark: listed apart in the source
Target sequence in this assay (peptide, as listed by the source): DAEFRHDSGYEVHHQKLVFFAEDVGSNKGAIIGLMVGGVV

[3] = target: natural β-amyloid peptide β-AP1-40 (human); remark: listed apart in the source
[4] = target: natural β-amyloid peptide β-AP1-40 (human); remark: listed apart in the source
Target sequence in this assay (peptide, as listed by the source): as above

Row | Binder | % Inhibition of Plateau; nucleation assay; 100 mole % [1] [%] | Fold Increase in Lag Time; nucleation assay; 100 mole % [1] [fold] | further results
1 | SNKGAIIGLMVGGVV [unmodified Aβ26-40] | ~0 | 0.8 | –
2 | EVHHQKLVFFAEDVG [unmodified Aβ11-25] | 47 | ~1 | –
3 | DAEFRHDSGYEVHHQAEDVGSNKGAIIGLMVGGVV [Aβ1-15, 21-40(Δ16-20)] | ~0 | 1.55 | –
4 | AEDVGSNKGAIIGLM [unmodified Aβ21-35] | ~0 | ~1 | –
5 | DAEFRHDSGYEVHHQKLVFFSNKGAIIGLMVGGVV [Aβ1-20, 26-40(Δ21-25)] | ~0 | 2.37 | –
6 | HDSGYEVHHQKLVFF [unmodified Aβ6-20] | 76 | 1.66 | –
7 | KLVFFAEDVGSNKGA [unmodified Aβ16-30] | 100 | > 4.5 | –
8 | DAEFRHDSGYEVHHQ [unmodified Aβ1-15] | 18 | ~1 | –
9 | Cholyl-HDSGYEVHHQKLVFF [cholyl-Aβ6-20] | – | – | % Inhibition of Plateau; nucleation assay; 100 mole % [2]: 100%; Fold Increase in Lag Time; nucleation assay; 100 mole % [2]: > 4.5 fold; % Inhibition of Plateau; nucleation assay; 100 mole % [3]: 100%; Fold Increase in Lag Time; nucleation assay; 10 mole % [3]: 2 fold; Fold Increase in Lag Time; nucleation assay; 100 mole % [3]: > 4.5 fold; % Inhibition of Plateau; nucleation assay; 10 mole % [4]: 43%; Fold Increase in Lag Time; nucleation assay; 10 mole % [4]: 2 fold
10 | DAEFRHDSGYKLVFFAEDVGSNKGAIIGLMVGGVV [Aβ1-10, 16-40(Δ11-15)] | ~0 | ~1.2 | –
